Biological target: T1, GST (UniProt P08515 1-218 = GST)
T1 construct: Negative control of the pull-down; also called GST alone
Assay: GST pull-down on GSH-sepharose, immunoblot

T1 sequence (P08515 whole entry): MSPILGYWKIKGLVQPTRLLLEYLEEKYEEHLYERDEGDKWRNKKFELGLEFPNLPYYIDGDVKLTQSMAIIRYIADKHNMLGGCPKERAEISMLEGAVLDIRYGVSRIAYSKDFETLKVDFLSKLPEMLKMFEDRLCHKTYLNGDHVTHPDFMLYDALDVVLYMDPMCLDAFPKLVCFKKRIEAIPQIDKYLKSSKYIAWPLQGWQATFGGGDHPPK

binding result: no binding
B1: His6-T7-tagged MP1 (other, UniProt O88653 1-124, looked up)
chain: MADDLKRFLYKKLPSVEGLHAIVVSDRDGVPVIKVANDSAPEHALRPGFLSTFALATDQGSKLGLSKNKSIICYYNTYQVVQFNRLPLVVSFIASSSANTGLIVSLEKELAPLFEELIKVVEVS
notes: Recombinant, in bacterial lysate; also called His6-T7-MP1; not shown: N-terminal His6-T7 tag from vector pET28 (Novagen)
